Key:
Format in all cases: cell-based
[1] = tested on: gene editing with Cas9; test: Screen of 322 new SSAP proteins, gene editing activity with Cas9 (Table 5); design: Cas9 with SSAP activity: scale not given here
Summary of the method: (§1)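 Synthetic SSAP candidates, identified computationally, were tested in editing screens using both Cas9 and dCas9.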

[2] = tested on: gene editing with dCas9; test: Screen of 322 new SSAP proteins, gene editing activity with dCas9 (Table 5); design: dCas9 with SSAP activity: scale not given here
Summary of the method: as §1

[3] = tested on: gene editing with Cas9 and dCas9; test: Screen of 322 new SSAP proteins, activity across all experiments (Cas9 and dCas9, Table 5); design: scale not given here
Summary of the method: as §1

Molecule	Cas9 with SSAP activity [1]	Cas9 with SSAP activity (normalized) [1]	dCas9 with SSAP activity [2]	dCas9 with SSAP activity (normalized) [2]	Activity across all experiments [3]
SSAP_144: SEQ ID NO: 313; Romboutsia weinsteinii (protein, listed as Romboutsia weinsteinii) TNLKNTLKNKEAKGNNLAINPSYAMKQLMIKMKGEITSALPKELCSERFQRVALTAFNSNPKLQNCAPMTFIAAMMQSDQLGLEPNTPLGQAYLIPYKVKGIDKVQFQIGYKGLLELAHRSGRLKTLYAHEVRENDEFDIDYGLEQRLIHKPLLKGNRGEVIGYYAVYHLEHNGYSFVFMTYDEVLEHGKKYSKSFEGGIWEKEFDSMAKKTVIKKLLKYAPLSIEIQKAINFDESVKGSIDSDMLLVDKADESIDVEGNVLNQRGIKYGCI	−2.249	−0.663	−7.293	−1.765	−4.771
SSAP_322: SEQ ID NO: 491; Candidatus Dependentiae bacterium (protein, Candidatus Dependentiae bacterium) CHVLNFQTDYKGEIKLAHKYSVRKIIDIYAKVVRDGDVLEIRVENGSQIVNFNPKVFNDGKIIGAFAVVKFVDGSLLYETMSKSEIDHTRVTFSKMPNGMAWKDSEGEMCRKTVLRRICKLIDLHFDSVEQEQAWNDGSDADLTKNEPVKPEIQNPFPTKAVEAVIVTEEEKLRKQLKDKDPTLQDWQIDALVREHKEANQ	0.287	0.247	0.082	0.048	0.184
SSAP_131: SEQ ID NO: 300; Thermoclostridium stercorarium (protein, listed as Thermoclostridium stercorarium) TTVNQTELKNKLAEKAKTPAKTGNTVFDLIRKMEPEIKRALPKQISPERFARIAMTAVRNTPKLQACEPISFIAALMQSAQLGLEPNTPLGQAYLIPYGKEVQFQLGYQGMLTLAYRTGEYQSIYAMPVYANDEFEYEYGLNEKLVHKPAPDPEGEPIYYYAVYKLKNGGHGFVVMSRQQIERHRDKYSPSAKQGKFSPWNTDFDSMAKKTVLKQLLKYAPKSVEFATQIAQDETIKTEIAEDMTEVQGIEVEYEATDDQENQENQEQED	−1.273	−0.894	−7.001	−0.946	−4.137
SSAP_80: SEQ ID NO: 249 (protein) GHLVSKTEQDYIKQHYAKGATDQEFEHFIGVCRARGLNPAANQIYFVKYRSKDGPAKPAFILSIDSLRLIAHRTGDYAGCSEPIFTDGGKACTVTVRRNLKSGETGNFSGMAFYDEQVQQKNGRPTSFWQSKPRTMLEKCAEAKALRKAFPQDLGQFYIREEMPPQYDEPIQVHKPKALEEPRFSKSDLSRRKGLNRKLSALGVDPSRFDEVATFLDGTPDRELGQKLKLWLKEAGYGVNQ	−3.757	−0.629	−7.200	−1.353	−5.479
SSAP_148: SEQ ID NO: 317; Corynebacterium liangguodongii (protein, listed as Corynebacterium liangguodongii) KDLETRMAANQQPAQQRPTTLADQIRGMEQQFALAMPKGAEASQLVRDALTALRQAPKLAQCTPQSVLGSLMTCAQLGLRPGVLGHAYLIPFYDRRAGGLVAQLVIGYQGLVELAHRSGQIKSLIARTVYENDVFDVDYGLEDKLVHKPYMGGDKGQPIAYYAVAKFTTGGHAFYVMSHPEMLDYRARFAKSAERGPWVDNFEAMALKTCVRQLSKWMPKSTELATAIAADESVRVDLTPDAINYPEHVDGEVVDAQGTTEDTAGEGEQSA	−3.731	−0.574	−6.656	−1.610	−5.193
SSAP_88: SEQ ID NO: 257; Raoultella planticola (protein, listed as Raoultella planticola) TKQPPIAKADLQKTQGTRVSSPKGNNDVISFINQPSMKEQLAAALPRHMTAERMIRIATTEIRKVPALASCDTMSFVSAIVQCSQLGLEPGGALGHAYLLPFGNKNEKSGKKNVQLIIGYRGMIDLARRSGQIASLSARVVREGDEFSYEFGLEEKLTHRPGENEDAPVTHVYAVARLKDGGTQFEVLTSKQIELVRSQSKAANSGPWVTHWEEMAKKTAIRRLFKYLPVSIEIQRAVSIDEKEALTIDPADTSVLTGEYSVINSESEE	−2.144	−1.524	−6.933	−1.193	−4.539
SSAP_79: SEQ ID NO: 248 (protein) EALLLRRWQMGNLTKTTGFALAPQNLEQAMQLATMICNSQLAPNNYKGKPEDTLVAMMMGHELGLNPLQSIQNIAVINGRPSIYGDALLALVQNSPAFGGIQESFDEDTMTATCTVWRKGGEKHTQHYSKDDADTAGLWGKQGPWKQHPKRMLAMRARGFAVRNQFADALAGLVTREEAEDMEKEINPTPAPQAQSKRIGQKQSRTQYSESDFNENFPKWKAAVESGKKTSEQIISMVSTKGDLTQGMIEAIESIEAGEPA	−1.629	−2.086	−7.349	−2.203	−4.489
SSAP_212: SEQ ID NO: 381; Streptomyces sp. NRRL S-1824 (protein, listed as Streptomyces sp.) SEISNAIATRDQGPAAQIEAYRDEYAALVPSHINVDQWVRLAAGAIRGNEDLMEAARNDIGVFLRELKTAARLGLEPGTEQFYLTARKSKAHGYALIIKGIVGYQGIVELIYRAGAVSSVIVEAVRANDTFSYVPGRDDRPIHEIDWFGGDRGPLVGVYAYAVMKDGAVSKVVVMNHKRVMEIKARSDSKNSQYSPWNTDEESMWLKSAIRQLAKWVPTSAEYKSEQLRAHAEAIGELASVASAPLPPQPSVLDDVDPDDEGPIEGELVD	0.448	0.210	−6.577	−1.182	−3.064
SSAP_179: SEQ ID NO: 348; Acetoanaerobium noterae (protein, listed as Acetoanaerobium noterae) SNLKNELAKKANNSVTDGNKEPQTIKDWIKVMEPAIKKALPSVITPERFTRMALTAISVNPKLAECTPKSFMGSLMNAAQLGLEPNTPLGQAYLIPYKNKGNMEVQFQIGYKGLIELAYRSGEFANIYAKEVFENDEFEYEFGLEPVLKHKPASGNRGEVIAYYAVFKLTNGGFGFEVMSKEDITNHAKTYSQAYSSSYSPWSKNFDEMAKKTVLKKVLKYAPIKVEFVKQIVQDSTIKTEINSDMTEVESQNVFEAEETDYEVIDQEETK	−4.285	−0.748	−6.840	−1.230	−5.563
SSAP_161: SEQ ID NO: 330; Solobacterium moorei (protein, listed as Solobacterium moorei) TEIKAAKAPATVAKAGVSTQNKTIKDYITIMKPEIEKALPSTITPERFTRITLSAVSNNPKLQACSPSTFLSAMMQSAQLGLEPNTPLGQAYLIPYGNSCQFQLGYKGLLQLAYNSGQIKTIRTETVYENDEFKYELGLHSDLVHVPAMSNRGNPTAYYAVIEYTNGGYGFEVMSHDDVLEHAKKFSKTFNNGPWQSDFESMAKKTVLKQALKYAPLSTELVSKINTDETVKSSISDHMEEVKNDIDLSQIIDAETGEIHE	−1.623	−0.850	−0.092	−0.051	−0.857
SSAP_149: SEQ ID NO: 318; unclassified Oscillibacter (protein, listed as Oscillibacter sp.) KEGLIQGTQSAQAAKKGPATMQDYIKKMQGEIAKALPSVLTPERFTRITLSALSTNPKLAQTTPKSFLGAMMTAAQLGMEPNTPLGQAYLIPFKNHGVLECQFQLGYKGLIDLAYRSGEVSTIQAQTVYENDEFEYELGLEPKLHHVPAKGERGEPVYFYAVFRTKDGGYGFEVMSVDDVRTHAKKYSKAYSNGPWQTNFEEMAKKTVLKKALKYAPLKTEFMRGLTSDETIKTEISEDMYSVPDETVIEAEGYEVDGDTGEVIERPADGQ	−1.833	−2.092	−6.999	−1.192	−4.416
SSAP_297: SEQ ID NO: 466; Dysgonomonas capnocytophagoides (protein, Dysgonomonas capnocytophagoides) STQQVQQQTKPLSLANFLNAPSTANFLKETLAEKKSEFVSNLIALCDADPKLAQCDPAQLMKCAMNATSLNLPLNKNLGYAYVIAYKGVPSFQIGYKGLIQLAIRTGQYKFINATEIREGEIRHNKITGEVIFNGEKPDAPIVGYMSYLELVNGFTASLYMTEEQIEQHALRFSQTYKNDKQYRSSTSKWSDPLARPTMCKKTVLKLLLGTYGLMTTEFAKALDSDSDDEVSTSGHRFEEAEIVQQGEPNEEQSDEPKRMEI	−5.364	−1.014	−7.184	−1.057	−6.274
SSAP_94: SEQ ID NO: 263; Providencia alcalifaciens (protein, listed as Providencia alcalifaciens) STPPLAKSDLQKTQGTEVKIKTNEQKLVEFINQPGMKAQLAAALPKHITSDRMIRIVSTEIRKTPSLANCDIQSFIGAVVQCSQLGLEPGNALGHAYLLPFGNGKSDNGQQNVQLIIGYRGMIDLARRSGQIISISARTVRQGDNFHFEYGLNENLTHIPEGNEDSPITHVYAVARLKDGGVQFEVMTYNQIEKVRNLSKAGKNGPWVTHWEEMAKKTVIRRLFKYLPVSIEMQKAVILDEKAEANIEQEHSAIFEAEFEEVDSNGN	−0.340	−0.087	−7.000	−1.112	−3.670
